The text below walks through data of paper PMC3915059 (Archives of biochemistry and biophysics, 2013).

The target of series [1] is T1, Δ^1-pyrroline-5-carboxylate dehydrogenase (MmP5CDH, ALDH4A1) (Mus musculus, UniProt Q8CHT0).
T1 sequence (Q8CHT0 21-562): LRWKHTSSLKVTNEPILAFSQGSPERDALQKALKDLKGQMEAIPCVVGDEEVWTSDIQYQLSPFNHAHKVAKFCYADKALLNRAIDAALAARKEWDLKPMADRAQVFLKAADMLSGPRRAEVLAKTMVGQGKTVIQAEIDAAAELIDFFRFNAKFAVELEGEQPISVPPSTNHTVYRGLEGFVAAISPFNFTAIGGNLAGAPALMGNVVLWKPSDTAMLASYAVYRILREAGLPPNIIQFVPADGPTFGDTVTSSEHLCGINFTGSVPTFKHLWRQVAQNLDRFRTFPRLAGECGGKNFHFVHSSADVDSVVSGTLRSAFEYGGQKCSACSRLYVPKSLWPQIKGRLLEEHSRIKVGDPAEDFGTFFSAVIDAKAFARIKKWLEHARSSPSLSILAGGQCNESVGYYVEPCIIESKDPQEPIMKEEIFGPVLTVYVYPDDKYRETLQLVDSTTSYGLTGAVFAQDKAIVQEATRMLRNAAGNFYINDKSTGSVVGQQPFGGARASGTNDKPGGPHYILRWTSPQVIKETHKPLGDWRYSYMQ
Put plainly: steady-state inhibition kinetics, NADH production at […] nm, competitive model. It is filed as biochemical.

In series [2] the target is T1, Δ^1-pyrroline-5-carboxylate dehydrogenase (MmP5CDH, ALDH4A1). Nature of the series: X-ray crystal structure. It is filed as biochemical.
Substrate in series [3]: O=CCCC(=O)O
Nature of the series: purified protein. Conditions: NAD+ aldehyde substrate site; 20.0 °C.

`N[C@@H](CCC(=O)O)C(=O)O` [L-glutamate] came in with a Ki in series [1] of 12 mM.
In turn, `O=CC(=O)O` [compound 4, glyoxylate] returned a Ki in series [2] of 270 µM.

B1: Δ^1-pyrroline-5-carboxylate dehydrogenase (MmP5CDH, ALDH4A1) (Mus musculus) (protein)
chain: LRWKHTSSLKVTNEPILAFSQGSPERDALQKALKDLKGQMEAIPCVVGDEEVWTSDIQYQLSPFNHAHKVAKFCYADKALLNRAIDAALAARKEWDLKPMADRAQVFLKAADMLSGPRRAEVLAKTMVGQGKTVIQAEIDAAAELIDFFRFNAKFAVELEGEQPISVPPSTNHTVYRGLEGFVAAISPFNFTAIGGNLAGAPALMGNVVLWKPSDTAMLASYAVYRILREAGLPPNIIQFVPADGPTFGDTVTSSEHLCGINFTGSVPTFKHLWRQVAQNLDRFRTFPRLAGECGGKNFHFVHSSADVDSVVSGTLRSAFEYGGQKCSACSRLYVPKSLWPQIKGRLLEEHSRIKVGDPAEDFGTFFSAVIDAKAFARIKKWLEHARSSPSLSILAGGQCNESVGYYVEPCIIESKDPQEPIMKEEIFGPVLTVYVYPDDKYRETLQLVDSTTSYGLTGAVFAQDKAIVQEATRMLRNAAGNFYINDKSTGSVVGQQPFGGARASGTNDKPGGPHYILRWTSPQVIKETHKPLGDWRYSYMQ
Turning to B1, in series [3], the Km is recorded as 26 ± 2 µM, the kcat was 0.16 s⁻¹ and the kcat/Km was determined as 6200 M⁻¹ s⁻¹.
